Laboratory results reported in the Human Domainome abundance scans (Beltran et al. 2025).
± gives the uncertainty stated by the source.

B1: Zinc finger MYM-type protein 3, residues 405 to 444; numbered along this chain, Q14202 (parent)
chain: DATRCSICQKTGEVLHEVSNGSVVHRLCSDSCFSKFRANK

Variants of: B1
Assay: abundance fitness (aPCA) (normalised: wild type 0, dead -1); higher = more abundant; growth selection in yeast, the domain comes from the species named
Details: Homo sapiens

Abundance fitness of substitutions, site by site:
S34: R 0.076 ± 0.054 | E 0.32 ± 0.062 | M -0.039 ± 0.17 | T 0.125 ± 0.06 | G 0.137 ± 0.053 | Q 0.382 ± 0.083 | K 0.206 ± 0.068 | L -0.023 ± 0.061 | I -0.126 ± 0.12 | P -0.114 ± 0.064 | D 0.203 ± 0.1 | F -0.18 ± 0.087 | C -0.729 ± 0.098 | Y -1.01 ± 0.24 | W -0.187 ± 0.075 | A 0.203 ± 0.056
F33: G -0.044 ± 0.05 | A 0.134 ± 0.055 | K 0.03 ± 0.067 | M 0.187 ± 0.065 | H 0.073 ± 0.095 | N 0.01 ± 0.15 | Y -0.094 ± 0.1 | I -0.067 ± 0.11 | C -0.11 ± 0.15 | D -0.016 ± 0.081 | W 0.154 ± 0.06 | R 0.106 ± 0.051 | E 0.175 ± 0.077 | P -0.186 ± 0.074 | T -0.072 ± 0.065 | S -0.015 ± 0.058 | L 0.256 ± 0.054
V23: W -0.757 ± 0.076 | C -0.937 ± 0.09 | F -0.01 ± 0.077 | Q 0.181 ± 0.062 | R -0.013 ± 0.052 | L -0.317 ± 0.059 | E 0.103 ± 0.057 | A -0.085 ± 0.057 | N 0.14 ± 0.12 | H 0.092 ± 0.082 | S 0.007 ± 0.056 | K 0.114 ± 0.064 | I -0.087 ± 0.11 | G 0.018 ± 0.054 | M 0.13 ± 0.079 | D 0.079 ± 0.077 | P -0.374 ± 0.076 | T 0.126 ± 0.061 | Y -0.166 ± 0.077
C28: A -0.594 ± 0.058 | I -0.95 ± 0.18 | V -0.808 ± 0.063 | Q -0.809 ± 0.082 | T -0.853 ± 0.094 | F -1.09 ± 0.12 | G -0.623 ± 0.054 | D -0.529 ± 0.081 | K -0.823 ± 0.097 | H -0.733 ± 0.086 | Y -0.85 ± 0.12 | E -0.576 ± 0.069 | R -0.873 ± 0.061 | W -1.02 ± 0.08 | N -0.765 ± 0.11 | L -0.886 ± 0.062 | P -0.639 ± 0.083
G21: Y -0.389 ± 0.089 | C -0.335 ± 0.081 | N -0.646 ± 0.21 | F -0.366 ± 0.17 | M -0.243 ± 0.093 | L -0.298 ± 0.054 | D 0.016 ± 0.083 | R -0.354 ± 0.054 | V -0.611 ± 0.059 | W -0.701 ± 0.07 | K -0.214 ± 0.058 | H -0.235 ± 0.17 | S -0.193 ± 0.064 | E 0.008 ± 0.063 | Q 0.043 ± 0.064 | P -0.392 ± 0.1
L27: F -0.019 ± 0.15 | S -0.447 ± 0.062 | H -0.382 ± 0.08 | I -0.129 ± 0.12 | N -0.618 ± 0.096 | K -0.317 ± 0.069 | P -0.458 ± 0.078 | C 0.032 ± 0.07 | G -0.331 ± 0.053 | W -0.205 ± 0.056 | D -0.569 ± 0.092 | Q -0.294 ± 0.07 | M 0.033 ± 0.073 | V -0.22 ± 0.056 | R -0.393 ± 0.055 | E -0.352 ± 0.067 | Y -0.056 ± 0.1 | A -0.393 ± 0.059
H16: P -0.605 ± 0.078 | E -0.033 ± 0.061 | V -0.492 ± 0.061 | Q -0.053 ± 0.057 | K -0.158 ± 0.075 | L -0.645 ± 0.057 | R -0.121 ± 0.051 | G -0.306 ± 0.058 | S -0.319 ± 0.057 | T -0.352 ± 0.063 | I -0.701 ± 0.13 | Y -0.466 ± 0.15 | N -0.252 ± 0.27 | F -0.208 ± 0.12 | D -0.379 ± 0.092 | C -1.09 ± 0.17 | M -0.551 ± 0.074
F36: E 0.029 ± 0.063 | D -0.082 ± 0.084 | G -0.206 ± 0.051 | A 0.042 ± 0.056
V24: L -0.077 ± 0.051 | E -0.03 ± 0.064 | H -0.034 ± 0.075 | T -0.038 ± 0.061 | I -0.064 ± 0.089 | M 0.048 ± 0.065 | F -0.307 ± 0.12 | G -0.255 ± 0.052 | C -0.206 ± 0.073 | W -0.292 ± 0.066 | Y -0.133 ± 0.072 | K 0.032 ± 0.068
S31: R 0.047 ± 0.053 | W -0.218 ± 0.066 | G 0.055 ± 0.052 | N -0.089 ± 0.095 | F -0.166 ± 0.083 | V -0.032 ± 0.056 | H -0.16 ± 0.093 | I 0.064 ± 0.15 | D 0.094 ± 0.09 | C -0.185 ± 0.18 | A -0.063 ± 0.058 | L -0.022 ± 0.059 | T 0.027 ± 0.082 | P -0.025 ± 0.072 | K 0.081 ± 0.086 | M -0.006 ± 0.072 | Q 0.042 ± 0.075
V18: C -0.201 ± 0.075 | H -0.209 ± 0.1 | M -0.266 ± 0.074 | R -0.334 ± 0.055 | L -0.157 ± 0.053 | E -0.15 ± 0.059 | F -0.095 ± 0.095 | G -0.42 ± 0.055 | W -0.228 ± 0.071 | A -0.183 ± 0.055 | P -0.258 ± 0.06 | K -0.267 ± 0.064 | Q -0.243 ± 0.063 | I -0.067 ± 0.11 | N -0.358 ± 0.094
K35: S 0.02 ± 0.058 | L -0.127 ± 0.055 | T 0.058 ± 0.066 | F 0.052 ± 0.19 | D 0.053 ± 0.076 | H -0.03 ± 0.084 | E 0.166 ± 0.056 | Y -0.175 ± 0.26 | C -0.959 ± 0.11 | M 0.078 ± 0.07 | N 0.03 ± 0.34 | Q 0.146 ± 0.067 | A 0.119 ± 0.054 | P -0.471 ± 0.074 | W -0.84 ± 0.084
E17: H -0.285 ± 0.097 | W -0.959 ± 0.081 | D -0.251 ± 0.11 | Y -1.02 ± 0.23 | S -0.192 ± 0.057 | A -0.759 ± 0.068 | C -0.358 ± 0.081 | L -0.764 ± 0.067 | V -0.487 ± 0.058 | R -0.44 ± 0.053 | K -0.073 ± 0.06 | I -0.458 ± 0.091 | M -0.395 ± 0.088 | T -0.089 ± 0.062 | F -0.606 ± 0.091 | N -0.291 ± 0.11 | P -0.697 ± 0.086 | G -0.594 ± 0.055
R26: I -0.173 ± 0.073 | L -0.196 ± 0.055 | E -0.283 ± 0.063 | F -0.177 ± 0.075 | C -0.312 ± 0.1 | P -0.074 ± 0.066 | A -0.02 ± 0.052 | M -0.12 ± 0.078 | G -0.117 ± 0.053 | W -0.21 ± 0.061 | Q 0.097 ± 0.059 | K 0.013 ± 0.074 | D -0.606 ± 0.16 | N -0.195 ± 0.077 | T -0.048 ± 0.065 | H -0.074 ± 0.062 | Y -0.339 ± 0.084
S19: L -0.233 ± 0.059 | H -0.268 ± 0.08 | F -0.101 ± 0.11 | P 0.023 ± 0.065 | E 0.066 ± 0.058 | A -0.215 ± 0.058 | Q 0.059 ± 0.065 | I -0.11 ± 0.099 | Y -0.383 ± 0.15 | T -0.009 ± 0.068 | G -0.1 ± 0.05 | N 0.052 ± 0.091 | R -0.078 ± 0.051 | K 0.176 ± 0.068 | M -0.12 ± 0.079 | V -0.135 ± 0.054 | D -0.078 ± 0.072
S22: R -0.136 ± 0.051 | E 0.006 ± 0.056 | A -0.109 ± 0.06 | L -0.208 ± 0.06 | C -0.56 ± 0.077 | N 0.029 ± 0.094 | H -0.055 ± 0.076 | Y -0.303 ± 0.094 | I -0.153 ± 0.073 | T 0.018 ± 0.058 | Q -0.001 ± 0.065 | D -0.432 ± 0.1 | P -0.039 ± 0.066 | W -0.419 ± 0.076 | V -0.571 ± 0.06 | M 0.021 ± 0.068
S29: Y -0.936 ± 0.24 | A -0.363 ± 0.061 | R -0.684 ± 0.062 | L -0.755 ± 0.067 | D -0.404 ± 0.076 | M -0.622 ± 0.086 | K -0.602 ± 0.09 | C -0.591 ± 0.077 | T -0.771 ± 0.1 | W -0.669 ± 0.07 | P -0.487 ± 0.074 | V -0.596 ± 0.062 | H -0.683 ± 0.16 | I -0.857 ± 0.13 | E -0.325 ± 0.063 | Q -0.427 ± 0.087 | F -1.05 ± 0.14 | G -0.277 ± 0.054
D30: T -0.219 ± 0.066 | P -0.371 ± 0.1 | H -0.425 ± 0.15 | V -0.384 ± 0.062 | W -1.07 ± 0.12 | K -0.109 ± 0.096 | Y -0.857 ± 0.34 | R -0.231 ± 0.056 | E -0.041 ± 0.066 | Q -0.079 ± 0.096 | I -0.734 ± 0.21 | G -0.269 ± 0.056 | N -0.721 ± 0.31 | F -0.632 ± 0.13 | S -0.387 ± 0.073 | M -0.28 ± 0.088 | C -1.66 ± 0.31 | L -0.398 ± 0.057
L15: Y -0.142 ± 0.3
C32: D -0.301 ± 0.1 | G -0.576 ± 0.054 | S -0.645 ± 0.079 | V -0.742 ± 0.068 | Q -0.345 ± 0.079 | R -0.832 ± 0.071 | K -0.727 ± 0.097 | F -0.968 ± 0.16 | H -0.59 ± 0.11 | L -0.676 ± 0.076 | I -0.587 ± 0.19 | T -0.565 ± 0.1 | P -0.763 ± 0.13 | N -0.808 ± 0.1
N20: A -0.068 ± 0.056 | H -0.033 ± 0.07 | K -0.138 ± 0.072 | R -0.135 ± 0.057 | P -0.559 ± 0.067 | I 0.047 ± 0.096 | M -0.001 ± 0.072 | E 0.055 ± 0.053 | C -0.517 ± 0.11 | G -0.21 ± 0.052 | F -0.431 ± 0.1 | S -0.069 ± 0.06 | Q -0.004 ± 0.059 | V -0.296 ± 0.053 | W -0.415 ± 0.073 | D 0.153 ± 0.079
H25: M -0.129 ± 0.066 | I -0.216 ± 0.076 | G -0.164 ± 0.053 | A -0.122 ± 0.055 | Y -0.385 ± 0.097 | T -0.046 ± 0.056 | P -0.363 ± 0.073 | V -0.507 ± 0.059 | N -0.031 ± 0.081 | W -0.247 ± 0.061 | Q -0.038 ± 0.065 | L -0.266 ± 0.056 | E 0.205 ± 0.058 | S -0.138 ± 0.056 | K -0.006 ± 0.061 | R -0.318 ± 0.054
